Results taken from patent US12098206B2, “PDGF receptor antibody and use thereof” (Seoul National University R&DB Foundation, priority 2018, dated 2024).
Read-outs that look alike come from different tables or passages of the source.

Experiments:
[1] = rats; cited from earlier work
[2] = persons treated with up to 1,800 mg for 4 consecutive days; cited from earlier work
[3] = mice; conventional studies; cited from earlier work
[4] = system: NIH3T3 cells; test: cells; format: cell-based, mouse; settings: for IC50: Mus musculus, NIH3T3, 72 h, NIH3T3 cells, 72 hours; for toxicity with the addition of mPDGF-BB: complex with cot-duo or cot-duo-cot; for toxicity with the addition of mPDGF-BB / toxicity compared to control anti-HER2 x cotinine scFv-Cκ-scFv: NIH3T3, FIG. 5; for toxicity compared to control anti-HER2 x cotinine scFv-Cκ-scFv: complex with cotinine-duocarmycin, with or without mPDGF-BB
Procedure: NIH3T3 cells were added to 50 μL of DMEM supplemented with 10% FBS and 1% penicillin/streptomycin, placed in a 96-well plate (CLS3595, Corning) and incubated overnight in 5% CO2 at 37° C. incubator. In each well containing 50 μL of cells, 50 μL of 50 anti-PDGFR-β x cotinine scFv-Cκ-scFv fusion protein (25.6 pM-2 μM) complexed with cot-duo or cot-duo-cot obtained in Experimental Example 10 was added and incubated for 72 hours in 5% CO2 at 37° C. incubator. To test mPDGF-BB on the toxic effect of the bispecific antibody of scFv-Cκ-scFv and the cotinine-duocarmycin complex, mPDGF-BB (2 nM) was added together with 50 μL of the bispecific antibody scFv-Cκ-scFv and the cotinine-duocarmycin complex. The mixed complexes were added to 50 μL of NIH3T3 cells.
The bispecific antibody of anti-HER2 x cotinine scFv-Cκ-scFv was used as a control. After 72 hours of incubation in the cells, 100 μL of Cell Titer-Glo reagents (Promega Corp., Madison, WI, USA) were added to all wells according to the manufacturer's instructions, and luminescence was measured in a luminometer (PerkinElmer, Waltham, MA, USA). The experiment was repeated 3 times. Relative viability was calculated with the following formula: [% viability=(luminescence of experimental well-luminescence of background well)/(luminescence of control-luminescence of background well)×100]. The wells containing only new medium were used as background wells.
To evaluate the toxicity of the complex of anti-mPDGFR-B x cotinine scFv-Cκ-scFv bispecific antibodies and cotinine duocarmycin (cot-duo, cot-duo-cot), the complexes were added to NIH3T3 cells in the presence/absence of mPDGF-BB. The ATP of the cells was measured for relative cell viability. The toxicity of the bispecific antibody of scFv-Cκ-scFv fusion antibody was shown by IC50 in Table 6 and FIG. 5.
It was carried out in the same manner as in Example 7, except that the bispecific antibody related with the anti-mPDGFR-β antibody and the bispecific antibody related with the anti-hPDGFR-β antibody prepared in Example 10 were used. FIG. 20a to FIG. 20b are graphs showing the difference in cytotoxic activity of PRb-CN01 and PRb-CN32 bispecific antibodies and cotinine-duocarmycin complexes in the cells expressing PDGFR-β. In FIG. 20b, an experiment was repeated in the presence of mPDGF-BB.

[5] = molecular target: PDGFR-β (Homo sapiens, UniProt P09619); settings: cited from earlier work
[6] = combination of Olaratumab and doxorubicin compared to doxorubicin alone; cited from earlier work
[7] = system: NIH3T3 cells; test: Internalization analysis by confocal microscopy in NIH3T3 cells; format: cell-based, mouse; settings: 10 μg/mL, 37° C., 30 minutes, FIG. 4c
Procedure: The bispecific antibody of scFv-Cκ-scFv fusion protein was analyzed with a confocal microscope for visualizing internalization. NIH3T3 cells were treated with the bispecific antibody of scFv-Cκ-scFv (10 μg/mL) diluted in DMEM containing 10% FBS, and internalized at 37° C. for 30 minutes. After washing the cells 3 times with cold PBS, acidic buffer (0.2 M acetic acid, 0.5 M sodium chloride) was treated at room temperature for 5 minutes to remove the antibody bound to the cell surface. Cells were washed twice with cold PBS, fixed with 4% paraformaldehyde for 10 minutes, and then subjected to immunofluorescence staining as previously described [J. M. Lim et al., J. Cell. Biol. 210 (2015) 23].
Briefly, to block antibodies having non-specific reaction, cells were incubated in PBS containing 5% horse serum and 0.1% Triton X-100 for 30 minutes, and 2 μg/mL FITC-anti human Cκ antibody (TB28-2, BD Biosciences) was added at room temperature for 30 minutes. To image the initial endosomes, the cells were washed 3 times with PBS, incubated with PBS containing 5% horse serum and 0.1% Triton X-100 for 30 minutes, and then incubated with ati-RabS antibody diluted to 1:200 (C8B1, Cell Signaling Technology, Danvers, MA, USA). Alexa Fluor 546 goat anti-rabbit IgG (A-11035, Invitrogen) was sequentially treated. Cells were treated with 0.2 μg/mL DAPI to detect DNA. Confocal microscopy images were obtained using a Zeiss LSM 880 microscope, and images were analyzed with Zen software (Carl Zeiss, Thornwood, NY, USA).
To measure the cellular internalization of the bispecific antibody of scFv-Cκ-scFv, anti-mPDGFR-β x cotinine scFv-Cκ-scFv fusion protein was incubated in NIH3T3 cells, and then treated with FITC-anti-human Cκ antibody and endosome-specific antibody. It was imaged using a confocal microscope. […] When the images were merged, the present inventors confirmed that the fluorescence of the three antibody clones and the endosome-specific antibody were co-localized.

[8] = molecular target: T1, mPDGFR-β and cotinine (Mus musculus, UniProt P05622); test: Enzyme immunoassay, simultaneous binding to cotinine and mPDGFR-β; settings: cotinine-BSA coated wells, then mPDGFR-β-Fc chimera; FIG. 3d
T1 construct: mPDGFR-β
T1 sequence (P05622 32-530): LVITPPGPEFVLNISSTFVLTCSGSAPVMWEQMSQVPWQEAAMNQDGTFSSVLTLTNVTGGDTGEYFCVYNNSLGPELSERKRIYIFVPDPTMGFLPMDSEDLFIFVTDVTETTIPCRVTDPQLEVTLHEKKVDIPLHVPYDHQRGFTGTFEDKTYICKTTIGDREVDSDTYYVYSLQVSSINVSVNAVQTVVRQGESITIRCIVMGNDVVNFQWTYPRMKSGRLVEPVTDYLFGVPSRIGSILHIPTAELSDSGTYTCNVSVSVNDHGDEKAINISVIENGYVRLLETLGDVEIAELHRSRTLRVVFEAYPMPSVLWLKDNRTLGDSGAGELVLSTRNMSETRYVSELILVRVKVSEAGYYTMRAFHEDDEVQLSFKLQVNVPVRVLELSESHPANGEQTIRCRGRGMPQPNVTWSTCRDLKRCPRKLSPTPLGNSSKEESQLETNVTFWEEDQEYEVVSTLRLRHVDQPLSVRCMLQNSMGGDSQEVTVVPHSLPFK
Procedure: In order to confirm whether the bispecific antibody has simultaneous binding ability to both cotinine and mPDGFR-β, anti-mPDGFR-β x cotinine scFv-Cκ-scFv fusion protein was reacted in wells coated with cotinine-BSA. Washing was performed for each process, and mPDGFR-β-Fc chimeric protein and HRP-anti human Fc antibody were sequentially incubated.

[9] = molecular target: T2, mPDGFR-β (Mus musculus, UniProt P05622); test: Competition enzyme immunoassay with mPDGF-BB; format: binding; settings: mPDGF-BB 100 nM; FIG. 4a
T2 construct: mPDGFR-β
T2 sequence (P05622 32-530): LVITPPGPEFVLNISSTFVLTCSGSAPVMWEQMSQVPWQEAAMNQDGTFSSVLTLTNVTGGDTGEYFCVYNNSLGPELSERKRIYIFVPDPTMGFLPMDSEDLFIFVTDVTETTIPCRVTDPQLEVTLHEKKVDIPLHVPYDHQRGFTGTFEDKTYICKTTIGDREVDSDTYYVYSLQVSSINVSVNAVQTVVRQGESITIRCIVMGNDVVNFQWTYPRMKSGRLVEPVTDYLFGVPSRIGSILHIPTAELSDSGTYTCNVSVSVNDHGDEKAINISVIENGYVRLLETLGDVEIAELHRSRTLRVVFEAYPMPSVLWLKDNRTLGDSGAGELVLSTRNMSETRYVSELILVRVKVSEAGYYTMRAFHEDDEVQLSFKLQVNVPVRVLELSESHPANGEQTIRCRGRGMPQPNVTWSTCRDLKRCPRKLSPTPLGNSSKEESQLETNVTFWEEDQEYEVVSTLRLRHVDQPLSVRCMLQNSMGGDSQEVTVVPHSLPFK
Procedure: In order to confirm the competition between the bispecific antibody according to the present invention and mPDGF-BB, the microtiter plate was coated with mPDGFR-β-Fc chimera as mentioned above and then blocked. The microtiter plate was treated with various concentrations of the bispecific antibody (0.06 nM-1 μM) with or without addition of mPDGF-BB (100 nM), and then incubated at 37° C. for 2 hours. The washing, incubation, and detection were performed in the same manner as the enzyme immunoassay described above.
A competition enzyme immunoassay was developed to examine the effect of mPDGF-BB on the binding ability of anti-mPDGFR-β x cotinine scFv-Cκ-scFv fusion protein. The serially diluted bispecific antibodies (anti-mPDGFR-β scFv-Cκ-cotinine scFv) were incubated on wells coated with mPDGFR-β-Fc chimeric fusion protein with or without mPDGF-BB. HRP-anti-human Cκ antibody was incubated and then TMB was added. […] However, the binding ability of PRb-CN01 was not inhibited, so it confirmed that PRb-CN01 binds to mPDGFR-β in a noncompetitive manner to mPDGF-BB.

PDGFR-β, sequence (P09619 33-1106): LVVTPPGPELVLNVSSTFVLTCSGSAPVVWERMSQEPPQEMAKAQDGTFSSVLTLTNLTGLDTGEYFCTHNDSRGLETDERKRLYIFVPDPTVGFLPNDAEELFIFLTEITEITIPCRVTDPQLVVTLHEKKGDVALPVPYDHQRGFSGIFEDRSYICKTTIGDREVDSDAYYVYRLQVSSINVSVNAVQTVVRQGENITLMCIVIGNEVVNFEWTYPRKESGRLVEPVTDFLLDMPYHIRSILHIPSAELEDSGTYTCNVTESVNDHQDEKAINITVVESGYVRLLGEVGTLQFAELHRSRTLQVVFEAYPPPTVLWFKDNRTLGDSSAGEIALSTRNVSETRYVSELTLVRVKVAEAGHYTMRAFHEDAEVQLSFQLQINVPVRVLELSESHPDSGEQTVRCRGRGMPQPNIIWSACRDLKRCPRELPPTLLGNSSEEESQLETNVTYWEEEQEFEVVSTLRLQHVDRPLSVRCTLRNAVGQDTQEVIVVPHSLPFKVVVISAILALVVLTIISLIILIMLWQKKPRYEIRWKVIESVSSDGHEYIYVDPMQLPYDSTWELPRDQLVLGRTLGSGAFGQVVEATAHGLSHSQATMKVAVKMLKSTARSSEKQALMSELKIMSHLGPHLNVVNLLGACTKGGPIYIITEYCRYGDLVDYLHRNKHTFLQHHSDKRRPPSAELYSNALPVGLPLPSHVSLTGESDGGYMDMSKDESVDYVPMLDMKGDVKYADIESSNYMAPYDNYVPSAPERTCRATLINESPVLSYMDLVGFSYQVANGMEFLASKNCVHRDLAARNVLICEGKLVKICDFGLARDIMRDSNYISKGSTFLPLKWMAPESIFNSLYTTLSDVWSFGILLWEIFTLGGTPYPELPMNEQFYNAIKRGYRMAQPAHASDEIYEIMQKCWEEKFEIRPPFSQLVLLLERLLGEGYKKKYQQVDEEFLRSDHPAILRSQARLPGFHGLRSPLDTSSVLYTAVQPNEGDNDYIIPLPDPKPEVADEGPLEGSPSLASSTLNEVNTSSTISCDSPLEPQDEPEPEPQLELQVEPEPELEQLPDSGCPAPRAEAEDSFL

Molecule | cellular internalization [7] | simultaneous binding to mPDGFR-β and cotinine [8] | toxicity with the addition of mPDGF-BB [4] | toxicity compared to control anti-HER2 x cotinine scFv-Cκ-scFv [4] | binding ability to mPDGFR-β in the presence of mPDGF-BB [9] | further results
CN1C(=O)CC[C@H]1c1cccnc1 [Cotinine, cotinine] | – | – | – | – | – | LD50 [1]: 4000 ± 100 mg/kg; adverse side effects [2]: no adverse side effects were induced
COC(=O)c1cc2c([nH]1)C(=O)C=C1N(C(=O)c3cc4cc(OC)c(OC)c(OC)c4[nH]3)C[C@H]3C[C@]123 [Free duocarmycin, duocarmycin, reference compound] | – | – | – | – | – | weight loss [3]: induced significantly weight loss; IC50 ([4]; read-out: Cot-duo IC50 (nM), complex with cot-duo (DAR4), or conjugate/free drug alone, with mPDGF-BB (2 nM)): 23.8 nM; IC50 ([4]; read-out: Cot-duo IC50 (nM), complex with cot-duo (DAR4), or conjugate/free drug alone, without mPDGF-BB): 9.7 nM; IC50 ([4]; read-out: Cot-duo-cot IC50 (nM), complex with cot-duo-cot (DAR2), or conjugate/free drug alone, with mPDGF-BB (2 nM)): 60.3 nM; IC50 ([4]; read-out: Cot-duo-cot IC50 (nM), complex with cot-duo-cot (DAR2), or conjugate/free drug alone, without mPDGF-BB): 35.7 nM
Olaratumab: recombinant human IgG1 antibody against PDGFR-α | – | – | – | – | – | cross-reactivity with PDGFR-β [5]: dose not cross-react with PDGFR-β; overall mean survival [6]: significantly improved overall mean survival compared to doxorubicin alone
PRb-CC02: anti-mPDGFR-β scFv clone (VH SEQ ID NO 23, VL SEQ ID NO 24), tested as scFv-Cκ-anti-cotinine scFv bispecific antibody (antibody, V domains shown, VH of PRb-CC02; VL of PRb-CC02) VH: AVTLDESGGGLQTPGGALSLVCKASGFTFSSYGMFWVRQAPGKGLEWVAGIDTGSGTNYGSAVKGRATISRDNGQSTVRLQLNNLRAEDTGTYFCTRGYAGTIDAWGHGTEVIVSSTS VL: LTQPSSVSANPGETVKITCSGGGGSYGWYQQKSPGSAPVTVIYYNDKRPSDIPSRFSGSKSGSTGTLTITGVQAEDEAVYFCGSYNSSDSLFGAGTTLTVL | Intracellular fluorescence was detected | simultaneously bound to mPDGFR-β and cotinine | decreased with the addition of mPDGF-BB | showed toxicity compared to the control antibody and the non-internalizing antibody (PRb-CC01), but did not show statistical significance | inhibited in the presence of mPDGF-BB | –
PRb-CC03: anti-mPDGFR-β scFv clone (VH SEQ ID NO 31, VL SEQ ID NO 32), tested as scFv-Cκ-anti-cotinine scFv bispecific antibody (antibody, V domains shown, VH of PRb-CC03; VL of PRb-CC03) VH: AVTLDESGGGLQTPGGTLSLVCKASGFTFSSYAMGWVRQAPGKGLEWVAGIDTAGGTAYGPAVKGRATISRDNGQSTVRLQLNNLRAEDTATYYCTRSSYIDTWGHGTEVIVSSTS VL: LTQPSSVSANPGETVKITCSGGTYNYGWYQQKSPGSAPVTVIYWNDKRPSDIPSRFSGSKSGSTGTLTITGVQAEDEAVYYCGSSDSSGLIFGAGTTLTVL | Intracellular fluorescence was detected | simultaneously bound to mPDGFR-β and cotinine | decreased with the addition of mPDGF-BB | showed toxicity compared to the control antibody and the non-internalizing antibody (PRb-CC01), but did not show statistical significance | inhibited in the presence of mPDGF-BB | –
PRb-CC01: anti-mPDGFR-β scFv clone (VH SEQ ID NO 15, VL SEQ ID NO 16), tested as scFv-Cκ-anti-cotinine scFv bispecific antibody (antibody, V domains shown, VH of PRb-CC01; VL of PRb-CC01) VH: AVTLDESGGGLQTPGGALSLVCKGSGFTFSSYNMGWVRQAPGKGLEFVAGISAADNSTAYGAAVDGRATISRDNGQSTVRLQLNNLRAEDTATYFCIRGGGSIDAWGHGTEVIVSS VL: LTQPSSVSANLGGTVKITCSGGGSYYGWYQQKSPGSAPVTLIYYNDKRPSDIPSRFSGSKSGSTGTLTITGVQAEDEAVYFCGAWDNSAGYAGFGAGTTLTVL | not internalized | simultaneously bound to mPDGFR-β and cotinine | decreased with the addition of mPDGF-BB | – | inhibited in the presence of mPDGF-BB | –
